Data published in patent publication US20220204577A1, “Synthetic Peptides With Affinity for the Interleukin-10 Receptor, Pharmaceutical Composition and Use Thereof as Immunomodulators for Treating Autoimmune, Inflammatory or Allergic Diseases” (Universidade Federal de Uberlândia, priority 2019, published 2022).

System: mouse basophilic leukemia cells transfected with the human FcεRI IgE receptor (hRBL)
Assay: IgE-mediated release of β-hexosaminidase (basophil degranulation) in hRBL cells
Assay type: cell-based
Conditions: rIL10 treatment; versus cells treated with Bet v1 alone; serum from seven birch pollen-allergic donors
Method: The effect of Pep 1 on IgE-mediated release was studied using mouse basophilic leukemia cells transfected with the human FcεRI IgE receptor (hRBL). The hRBL cells were sensitized with serum from seven patients allergic to birch pollen. The cells were stimulated with the antigen and its interaction with immobilized IgEs resulting in the release of β-hexosaminidase.
When cells were treated with a composition containing Pep 1 to 1 μM (FIG. 10A) or rIL10 (FIG. 10B), the amount of Bet v 1 required to induce the same amount of degranulation was higher than for cells treated with Bet v1 alone (P<0.05). Amount of rBet v 1 (ng/mL) required to induce half the release of β-hexosaminidase using serum from seven birch pollen-allergic donors after treatment with Pep 1 (A) (P<0.05) and rIL10 (B) * P<0.05.

B1: rIL10: recombinant IL-10, used as control (protein, UniProt P22301 19-178, looked up)
Interleukin-10: SPGQGTQSENSCTHFPGNLPNMLRDLRDAFSRVKTFFQMKDQLDNLLLKESLLEDFKGYLGCQALSEMIQFYLEEVMPQAENQDPDIKAHVNSLGENLKTLRLRLRRCHRFLPCENKSKAVEQVKNAFNKLQEKGIYKAMSEFDIFINYIEAYMTMKIRN
  amount of Bet v 1 required to induce the same amount of degranulation: higher
